Reference: patent publication US12559740B2, “Process for the direct enzymatic conversion of amino sugars; enzyme and compositions for use in the process” (GLYCOMICS AND GLYCAN BIOENGINEERING RESEARCH CENTER …, priority 2021, dated 2026)

Tested on: N[C@H]1C(O)O[C@H](CO)[C@@H](O)[C@@H]1O
Test: Kinetic analysis of Ef-GPDA with glucosamine (conversion of glucosamine to fructose, photometric at 505 nm after resorcinol derivatization)
Format: biochemical, Enterococcus faecalis
Conditions: other: substrate glucosamine (3 to 140 mM solutions, 30 μL), MES buffer pH 7.0, MgCl2, 40° C., 10 h
Method: Reaction mixtures (50 μL) were centrifuged at 12000 g for 10 min at room temperature, and 40 μL samples of the supernatant were taken and mixed with 35 μL conc. HCl and 5 μL of resorcinol-thiourea reagent (consisting of 0.1% (w/V) resorcinol and 0.25% (w/V) in glacial acetic acid). The mixed samples were incubated at 80° C. for 10 min and then centrifuged at 12000 g for 10 min at room temperature. The supernatants (50 μL) were then transferred to 96 microplate and the absorbance at λ=505 nm measured with a microplate photometer (Thermo Multiskan).
Genes encoding the wild-type or mutant variants of GDPA were synthesized in an E. coli codon-optimized form (Genscript) and delivered in a pUC19 vector with ampicillin resistance. The protein-encoding insert was cut via Ndel and Xhol restriction enzymes (Takara) and ligated in a pET30a expression vector via T4 Ligase (Takara). The GPDA enzymes were prepared as follows: a fresh single colony from an LB agar plate supplemented with […] Kanamycin and used to grow E. coli strain BL21 comprising the respective plasmid was used to inoculate 5 mL of LB liquid medium with the same concentration of Kanamycin. Following incubation of said culture over night at 120 rpm and 37° C. 2 mL of the overnight culture was used to inoculate 400 mL of the same medium in a 2 L flask. […]

In the case of “Ef-GPDA, glucosamine-6-phosphate deaminase from Enterococcus faecalis, wild type, SEQ ID NO: 1 (Enterococcus faecalis V583)”, the Km is reported as 21.8 ± 2.3 mM and the Vmax is reported as 4.0 ± 0.2 µmol/min.
